The data set deals with MS2 coat protein. The experiment in a line: apparent KD of MS2 coat protein; designed switch direction (-1 OFF switch, 1 ON switch): -1; higher = weaker reporter binding. An outline of the steps: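 The reported apparent KD is a per-design median over clusters, from curve fits of normalised cluster fluorescence. Protein titrations used SNAP-549-labelled MS2 coat protein, doubled from 0.7 or 1.5 nM to 3 µM, in Tris-HCl pH 7.5 buffer with KCl, MgCl2, BSA, DTT, tRNA and Tween-20, with no input, 200 uM small-molecule ligand, or an oligonucleotide input. The RNA switches were transcribed on Illumina chips by stalled E. coli RNA polymerase.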

[1] abbreviates: input ligand: microRNA oligo, concentration not stated.
The mark [2] stands for this setting: Eterna round: R95, input ligand: microRNA oligo, concentration not stated.
Setting [3] is: Eterna round: R95, input ligand: FMN 200 uM.
Where [4] appears, read: Eterna round: R95, input ligand: none.

The values below come from the supplement of paper PMC9170038.

As to “CCACUGUCAGGAUAUCGUGCAUAACGUUUACAAUUUAUGUGCGAGAAGGGACAUGAGGAUCACCCAUGUAAACG [Omei Ex4 A28PK3] (Eterna round: R97, puzzle: Exclusion 4)”, the “apparent KD of MS2 coat protein” value was determined as 227 nM (input ligand: FMN 200 uM) and 203 nM (input ligand: none).

For the sequence “CCAGAGUGAGGAUAUGCAUAAAGGUGCUGUCCCGUGGCUUGACAUGAGGAUCACCCAUGUAGAAGGUGCGUUGU [Raonra] (Eterna round: R96, puzzle: Exclusion 2)”, the “apparent KD of MS2 coat protein” value came out at 51.6 nM (input ligand: FMN 200 uM), 35.6 nM under setting [1] and 54.4 nM (input ligand: none). Turning to “CCAGAGUGAGGAUAUGCAUAAAGGUGCUGUCCCGUGGCUUGACAUGAGGAUCACCCAUGUAGAAGGUGCGUUGU [Raonra] (puzzle: Exclusion 2)”, the “apparent KD of MS2 coat protein” value under setting [2] worked out at 38.7 nM. In the case of “CCAGGCGUCUUGGCUCGUCUUAUUUGGAGAGGAUUGAUAACAUGAGGAUCACCCAUGUGUGUGGGAGCGUUGCAGUG [JR_SV3TOV2_Sub019] (puzzle: Sensor v3, turn-off variant 2)”, the “apparent KD of MS2 coat protein” value worked out at 75.5 nM under setting [3], 137 nM under setting [2] and 102 nM under setting [4]. As to “CCAUCGUGUGUGAGGAUAUGCUGGACCUUGGUUCAGCAGAAGGCACAUGAGGAUCACCCAUGUGAAUACGGUGG [Mat - Exclusion 4 - JL Mod - D90] (puzzle: Brourd's mod of Exclusion 4)”, under setting [2], the “apparent KD of MS2 coat protein” value is 16.1 nM.

Take “CCAUGCAGUGUGAGGAUAUGCUGGUCCUUGGAUCAGCAGAAGGCACAUGAGGAUCACCCAUGUGAAUAGCGUGG [Mat - Exclusion 4 - JL Mod - D84] (puzzle: Brourd's mod of Exclusion 4)”: under setting [2], the “apparent KD of MS2 coat protein” value worked out at 36.6 nM. Same read-out and setting: the result for “CCAUGUUAGCAGGAUAUGCAAUUAUUCUUUUAAGCAGAAGGGCUUACAUGAGGAUCACCCAUGUAACAUUUCAU [JR_E6_Sub081] (puzzle: Exclusion 6)” reads 17.3 nM. For “CCAUGUUAGCAGGAUAUGCAAUUAUUCUUUUACGCAGAAGGGCUUACAUGAGGAUCACCCAUGUAACAUUUCAU [JR_E6_Sub082] (puzzle: Exclusion 6)”, the “apparent KD of MS2 coat protein” value under setting [2] stood at 17.2 nM.

Regarding “CCCAGUUAUUCAGGAUAUUGUACAUGAGGAUCACCCAUGUAAUAAAUGAGGAUUUCGGGUGUCUACAAGAAGGGAAGGAUAGGC [Ostracism 19 - Jieux - Exclusion NG 2] (Eterna round: R96, puzzle: Exclusion NG 2)”, the “apparent KD of MS2 coat protein” value is, setting by setting: (input ligand: FMN 200 uM) 26.5 nM; under setting [1], 23.8 nM; (input ligand: none) 29.3 nM. For “CCCAUGUCAGGAUAUUAAUUGAGCAGGAAGCCCUGUUCACUUGAGAAGGGACAUGAGGAUCACCCAUGUAAAAC [Aesvea] (Eterna round: R97, puzzle: Exclusion 4)”, the “apparent KD of MS2 coat protein” value was determined as 30.1 nM (input ligand: FMN 200 uM) and 384 nM (input ligand: none). Consider “CCCGCAGGCUUUUUGCUCGACAUGAGGAUCACCCAUGUUGAAUGGGUUGUGUGUGUGUGAUACAUAUAUAUGGUCCU [-26.2, -50.8 kcal, A 19%] (Eterna round: R97, puzzle: Sensor, turn-off variant 1)”, for which the “apparent KD of MS2 coat protein” value is 242 nM (input ligand: FMN 200 uM) and 349 nM (input ligand: none).

Consider “CCCGGGCUUGUGAGGAUAUGCGCGCGGAAAUGUGUGUAGAAGGCACAUGAGGAUCACCCAUGUAAGGGCCCGGG [-32.4, -30.4 kcal, A 23%, 6-0] (Eterna round: R97, puzzle: Brourd's mod of Exclusion 4)”, for which the “apparent KD of MS2 coat protein” value worked out at 19.3 nM (input ligand: FMN 200 uM) and 148 nM (input ligand: none).

Regarding “CCCGGGUCAGGAUAUGGGCCCGGGCCCGAAAGGGCCCGGGCCCAGAAGGGACAUGAGGAUCACCCAUGUCCGGG [-53.1, -50.9 kcal, 20% A] (Eterna round: R97, puzzle: Exclusion 4)”, the “apparent KD of MS2 coat protein” value (input ligand: FMN 200 uM) turned out to be 26.7 nM and the “apparent KD of MS2 coat protein” value (input ligand: none) was found to be 24.3 nM. On to “CCCGGGUUUGUAGGAUAUGCCCGCCUUUGGCGGGCAGAAGGACAUGAGGAUCACCCAUGUUGUAUAAACUUGGGAUGUUCCUCG [random4] (Eterna round: R96, puzzle: Exclusion NG 1)”, for which the “apparent KD of MS2 coat protein” value (input ligand: FMN 200 uM) stood at 30.8 nM, the “apparent KD of MS2 coat protein” value under setting [1] worked out at 31.3 nM and the “apparent KD of MS2 coat protein” value (input ligand: none) came out at 40.7 nM. Take “CCCGUCGAUGUAGGAUAUGCCCGGGUCUCCCGGGCAGAAGGACAUGAGGAUCACCCAUGUUCGUGAGGAUCACCCAUGAAUGGG [Double but mutated MS2] (Eterna round: R96, puzzle: Exclusion NG 1)”: the “apparent KD of MS2 coat protein” value by setting is: (input ligand: FMN 200 uM) 15 nM; under setting [1], 13 nM; (input ligand: none) 19.4 nM. As to “CCCGUGUAAGGAUAUCGUUCACUUGGCGAAAGUCGAGUGGACGAGAAGGUACAUGAGGAUCACCCAUGUACGGG [-36.1, -35.7 kcal, A 27%] (Eterna round: R97, puzzle: Exclusion 4)”, the “apparent KD of MS2 coat protein” value by setting is: (input ligand: FMN 200 uM) 438 nM; (input ligand: none) 305 nM. In the case of “CCCUAGUAUGUAGGAUAUCGGUCAGUUUCUGAUCGAGAAGGACAUGAGGAUCACCCAUGUAAAACGUCCGGUUUCUGGAUAGGG [JL ENG1 3.56] (Eterna round: R96, puzzle: Exclusion NG 1)”, the “apparent KD of MS2 coat protein” value (input ligand: FMN 200 uM) stood at 73.2 nM, the “apparent KD of MS2 coat protein” value under setting [1] was found to be 17 nM and the “apparent KD of MS2 coat protein” value (input ligand: none) was found to be 24.6 nM.

Consider “CCCUCACAUGAGGAUCACCCAUGUCAGGAUAUCUCACAUCGGCCUUAGGCCAAUGUCAAGAGAAGGGACGUAUC [Usanvequin] (puzzle: Exclusion 1)”, for which the “apparent KD of MS2 coat protein” value under setting [2] turned out to be 21.7 nM. As for “CCGAAUAUGCAGGAUAUCGUAUCGGAAACGAUACGAGAAGGGUAAACAUGAGGAUCACCCAUGUUCCUUAACGG [Fiskers Ex 6 - 18] (puzzle: Exclusion 6)”, the “apparent KD of MS2 coat protein” value under setting [2] is 17.7 nM. Consider “CCGAUAAUGUAGGAUAUCGUAUCGGAAACGAUACGAGAAGGGCAAACAUGAGGAUCACCCAUGUUCCUUAACGG [Mat - Exclusion 6 - Eli Mod - D72] (puzzle: Exclusion 6)”, for which, under setting [2], the “apparent KD of MS2 coat protein” value came to 15.8 nM.

Turning to “CCGCGUGUCGGACUGGGUUACAUGAGGAUCACCCAUGUUCGGUAAACUAAGCGUUUGCUCGUCUAAACCAUUCUCGA [Eternabot (Original) Solution 24] (Eterna round: R97, puzzle: Sensor, turn-off variant 1)”, the “apparent KD of MS2 coat protein” value worked out at 175 nM (input ligand: FMN 200 uM) and 205 nM (input ligand: none).

In the case of “CCGGAAAUACAGGAUAUAGGAGUAAAUAUACUCCUAGAAGGGUAUACAUGAGGAUCACCCAUGUGUCCUACCGG [Fiskers Ex 6 - 67] (puzzle: Exclusion 6)”, the “apparent KD of MS2 coat protein” value under setting [2] was found to be 23.4 nM. In the case of “CCGGAAAUGAAGGAUAUAGGUGUCGAUAGACACCUAGAAGGUCAUACAUGAGGAUCACCCAUGUGUCCUACCGG [Fiskers Ex 6 - 7] (puzzle: Exclusion 6)”, the “apparent KD of MS2 coat protein” value under setting [2] was determined as 13.9 nM.

Regarding “CCGGAAAUGCAGGAUAUCGUAUCGGAUACGAUACGAGAAGGGUAUACAUGAGGAUCACCCAUGUGUCCUGCCGG [Fiskers Ex 6 - 54] (puzzle: Exclusion 6)”, the “apparent KD of MS2 coat protein” value under setting [2] turned out to be 39.8 nM. Regarding “CCGGAUAUGCAGGAUAUCGUAUCGGAGACGAUACGAGAAGGGUAUACAUGAGGAUCACCCAUGUGCCUUACCGG [Mat - Exclusion 6 - Eli Mod - D82] (puzzle: Exclusion 6)”, the “apparent KD of MS2 coat protein” value is, setting by setting: under setting [3], 23.3 nM; under setting [2], 19 nM; under setting [4], 20.7 nM.

As for “CCGGUUGGCGCAGGAUAUACAUGAGGAUCACCCAUGUUCAUGAGGAUCACCUAUGAGUUUUUGUUGUAGAAGGGUGGCCCGGCC (Eterna round: R96, puzzle: Exclusion NG 2)”, the “apparent KD of MS2 coat protein” value reads like this: (input ligand: FMN 200 uM) 53.1 nM; under setting [1], 39.1 nM; (input ligand: none) 52.9 nM. For the sequence “CCGUGCACGCUGCGGUCCUACAUGAGGAUCACCCAUGUGGUCUGGUGGCGUGGGUCGCCGGACUUGGCUCGUCUUGU [salish99_S_TOV1_R5_020] (Eterna round: R97, puzzle: Sensor, turn-off variant 1)”, the “apparent KD of MS2 coat protein” value reads like this: (input ligand: FMN 200 uM) 19.7 nM; (input ligand: none) 20.5 nM. For “CCGUUCCGUGUAGGAUAUUGGCCUACCACGGGCCGAGAAGGACAUGAGGAUCACCCAUGUAUGCUAUUAUCGCGCGUGGCGCCC [Design 99] (Eterna round: R96, puzzle: Exclusion NG 1)”, the “apparent KD of MS2 coat protein” value (input ligand: FMN 200 uM) was 24 nM, the “apparent KD of MS2 coat protein” value under setting [1] worked out at 15.4 nM and the “apparent KD of MS2 coat protein” value (input ligand: none) stood at 21.8 nM. “CCUAGUUGGUAAGGAUAUCCUACACUGUUCUGACCCGGGCAAGCUACAUGAGGAUCACCCAUGUGGGAGAAGGUGCGUCAACGC [Design 13] (Eterna round: R96, puzzle: Exclusion NG 2)”: the “apparent KD of MS2 coat protein” value (input ligand: FMN 200 uM) stood at 30.8 nM, the “apparent KD of MS2 coat protein” value under setting [1] came out at 22.2 nM and the “apparent KD of MS2 coat protein” value (input ligand: none) stood at 31.2 nM. With “CCUCAACAUGAGGAUCACCCAUGUCAGGAUAUGCGAAUUUCAUCAAAAGAUGAAAUUUGCAGAAGGGACUAAGC [Omei Ex1 A33] (Eterna round: R97, puzzle: Exclusion 1)”, the “apparent KD of MS2 coat protein” value reads like this: (input ligand: FMN 200 uM) 303 nM; (input ligand: none) 133 nM. The matching figures for “CCUCAGAUGUAGGAUAUCGCCCAGACAUUGCGGCGAGAAGGACAAACAUGAGGAUCACCCAUGUUAGUUUAGCA [Eternabot (L2) Solution 92] (Eterna round: R97, puzzle: Exclusion 6)”: 257 nM and 32.3 nM. In the case of “CCUCCACAUGAGGAUCACCCAUGUCAGGAUAUCGUGUGCGCGUUUUCGGUCUUUCGCGCGAGAAGGGACGUCUG (puzzle: Exclusion 1)”, under setting [2], the “apparent KD of MS2 coat protein” value was 24 nM. On to “CCUCCACAUGAGGAUCACCCAUGUCAGGAUAUCGUGUGUGCGUUUUCGGUCUUUCGCGCGAGAAGGGACGUCUG (puzzle: Exclusion 1)”, for which the “apparent KD of MS2 coat protein” value under setting [2] is 28.8 nM.
